Measured values: IntAct's records for PubMed 18952841

B1: Protein CBFA2T1 (Homo sapiens), Q06455 (parent)
chain: MISVKRNTWRALSLVIGDCRKKGNFEYCQDRTEKHSTMPDSPVDVKTQSRLTPPTMPPPPTTQGAPRTSSFTPTTLTNGTSHSPTALNGAPSPPNGFSNGPSSSSSSSLANQQLPPACGARQLSKLKRFLTTLQQFGNDISPEIGERVRTLVLGLVNSTLTIEEFHSKLQEATNFPLRPFVIPFLKANLPLLQRELLHCARLAKQNPAQYLAQHEQLLLDASTTSPVDSSELLLDVNENGKRRTPDRTKENGFDREPLHSEHPSKRPCTISPGQRYSPNNGLSYQPNGLPHPTPPPPQHYRLDDMAIAHHYRDSYRHPSHRDLRDRNRPMGLHGTRQEEMIDHRLTDREWAEEWKHLDHLLNCIMDMVEKTRRSLTVLRRCQEADREELNYWIRRYSDAEDLKKGGGSSSSHSRQQSPVNPDPVALDAHREFLHRPASGYVPEEIWKKAEEAVNEVKRQAMTELQKAVSEAERKAHDMITTERAKMERTVAEAKRQAAEDALAVINQQEDSSESCWNCGRKASETCSGCNTARYCGSFCQHKDWEKHHHICGQTLQAQQQGDTPAVSSSVTPNSGAGSPMDTPPAATPRSTTPGTPSTIETTPR

Variants of: B1
Settings: with son_human SON

| effect of a mutation on the interaction | Variant |
| --- | --- |
| disrupting interaction strength | C515S |

Variants of: B1
Settings: with son_mouse Son

| effect of a mutation on the interaction | Variant |
| --- | --- |
| disrupting interaction strength | C515S |
